Measurements from publication PMC12667553 (2025).

Target: His6-tagged YAP, purified (immobilised in BLI) (UniProt P46937 1-504)
Experiment: BLI

Sequence of His6-tagged YAP, purified (immobilised in BLI) (P46937 whole entry): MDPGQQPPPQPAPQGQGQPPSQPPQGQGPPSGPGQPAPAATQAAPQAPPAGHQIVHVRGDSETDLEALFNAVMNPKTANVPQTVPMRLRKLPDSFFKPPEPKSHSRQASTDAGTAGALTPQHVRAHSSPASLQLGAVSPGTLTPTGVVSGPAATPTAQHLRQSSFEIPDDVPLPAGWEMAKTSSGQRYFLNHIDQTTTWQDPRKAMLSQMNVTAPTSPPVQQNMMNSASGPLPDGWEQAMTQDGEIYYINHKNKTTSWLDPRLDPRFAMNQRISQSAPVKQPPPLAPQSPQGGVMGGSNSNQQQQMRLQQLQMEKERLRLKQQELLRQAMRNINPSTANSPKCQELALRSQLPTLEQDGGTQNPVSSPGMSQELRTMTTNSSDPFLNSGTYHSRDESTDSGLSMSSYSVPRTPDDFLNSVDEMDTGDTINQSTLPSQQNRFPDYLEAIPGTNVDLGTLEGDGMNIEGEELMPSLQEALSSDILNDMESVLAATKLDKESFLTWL

B1: recombinant TWF2, purified (BLI analyte) (natural protein)
chain: MAHQTGIHATEELKEFFAKARAGSVRLIKVVIEDEQLVLGASQEPVGRWDQDYDRAVLPLLDAQQPCYLLYRLDSQNAQGFEWLFLAWSPDNSPVRLKMLYAATRATVKKEFGGGHIKDELFGTVKDDLSFAGYQKHLSSCAAPAPLTSAERELQQIRINEVKTEISVESKHQTLQGLAFPLQPEAQRALQQLKQKMVNYIQMKLDLERETIELVHTEPTDVAQLPSRVPRDAARYHFFLYKHTHEGDPLESVVFIYSMPGYKCSIKERMLYSSCKSRLLDSVEQDFHLEIAKKIEIGDGAELTAEFLYDEVHPKQHAFKQAFAKPKGPGGKRGHKRLIRGPGENGDDS
With B1 the Kd was 7.9 µM.
